Data on 17 molecules can be found in US20260056186A1 (JIANGSU HENGRUI PHARMACEUTICALS, published 2026).

Residue numbers refer to the chain shown, from its start.

Assay [1] has as its target T1, IFNAR1 (human, UniProt P17181 28-557).
T1 sequence (looked up): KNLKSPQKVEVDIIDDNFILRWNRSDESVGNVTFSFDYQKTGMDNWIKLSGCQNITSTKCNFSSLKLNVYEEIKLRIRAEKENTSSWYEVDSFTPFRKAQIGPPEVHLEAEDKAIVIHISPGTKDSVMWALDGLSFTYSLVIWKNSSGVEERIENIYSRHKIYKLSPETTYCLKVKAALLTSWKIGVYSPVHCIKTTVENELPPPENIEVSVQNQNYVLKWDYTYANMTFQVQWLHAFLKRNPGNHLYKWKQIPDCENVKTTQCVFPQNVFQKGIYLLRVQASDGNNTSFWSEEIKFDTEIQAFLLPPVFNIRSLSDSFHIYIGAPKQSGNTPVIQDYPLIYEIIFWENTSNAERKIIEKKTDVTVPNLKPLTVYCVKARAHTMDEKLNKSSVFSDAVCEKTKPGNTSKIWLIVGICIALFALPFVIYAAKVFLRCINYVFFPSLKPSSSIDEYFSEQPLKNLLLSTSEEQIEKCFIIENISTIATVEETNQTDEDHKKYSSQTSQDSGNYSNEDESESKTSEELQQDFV
In words: cell-based or functional assay.

Assay [2] addresses T1, IFNAR1. In words: cell-based or functional assay. This is another data set of the same source.
In assay [3] the target is T2, APRIL (Acro Biosystems, Cat: APL-H52D1) (UniProt O75888 115-250, limits assumed).
T2 construct: also called ARPIL
T2 sequence (looked up): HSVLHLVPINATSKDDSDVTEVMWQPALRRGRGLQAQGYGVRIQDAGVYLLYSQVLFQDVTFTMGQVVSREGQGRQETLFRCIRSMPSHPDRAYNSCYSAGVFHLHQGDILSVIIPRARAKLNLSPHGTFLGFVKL
In words: ELISA, APRIL coated at 1 ug/mL, anti-human Fc-HRP, OD450. Here is the method:
The capabilities of B613301, B613302, and B613303, which are fusion proteins of anifrolumab and TACI-BCMA, to bind to BAFF and APRIL were assessed by ELISA as follows: [0548] BAFF (PeproTech, Cat: 310-13) or ARPIL (Acro Biosystems, Cat: APL-H52D1) was diluted to 1 μg/mL with PBS, and a 96-well plate (Costar, Cat: 3590) was coated with the dilution overnight at 4° C. The plate was washed with PBST and blocked with Blocking Buffer (PBST containing 1% BSA) at 37° C. for 1 h. The plate was tapped. The test antibodies were diluted with Blocking Buffer. Incubation was performed at 37° C. for 1.5 h. The plate was washed with PBST. An HRP-mouse anti-human Fc antibody (GenScript, Cat: A01854-200) was diluted with Blocking Buffer. Incubation was performed at 37° C. for 40 min. The plate was washed with PBST. 100 μL of TMB substrate solution (Biopanda, Cat: TMB-S-003) was added, and color development was performed at 37° C. for 3 min. 100 μL of ELISA stop solution (Solarbio, Cat: C1058) was added. OD450 was measured.
(ELISA stands for enzyme-linked immunosorbent assay.)

Assay [4] addresses T3, BAFF (Sino biological, 10056-HNCH) (UniProt Q9Y275 134-285, biotinylated in the blocking ELISA (site not stated)).
T3 construct: also called BLyS
The assay is described as follows: ELISA, BAFF coated at 1 ug/mL, anti-human IgG-HRP. The method, then:
The BAFF binding activity of the TACI-Fc fusion proteins was assessed as follows: BAFF (Sino biological, 10056-HNCH) protein was diluted with a pH 7.4 PBS (BasalMedia, B320) buffer to 1 μg/mL, and the resulting dilution was added to a 96-well microplate (Corning, 3590) at 100 μL/well. The plate was incubated overnight at 4° C. After the liquid was discarded, 5% skim milk (BD, 232100), diluted with PBS, was added at 300 μL/well for blocking, and the plate was incubated at 37° C. for 2 h. After the blocking, the blocking solution was discarded, and the plate was washed 3 times with a PBST buffer (pH 7.4 PBS containing 0.10% tween-20). Serially diluted test antibody or fusion protein solutions were added at 100 μL/well, and the plate was incubated at 37° C. for 1 h. […] The plate was incubated at 37° C. for 1 h. After the plate was washed 3 times with PBST, the chromogenic substrate TMB (KPL, 5120-0077) was added at 100 μL/well. The plate was incubated at room temperature for 10-15 min, and 1 M H₂SO₄ was added at 50 μL/well to stop the reaction. The absorbance at 450 nm was measured using a microplate reader. Curves for the binding of the antibodies to the antigen were fitted using software, and EC₅₀ values were calculated.
The BAFF binding activity of the constructed TACI-Fc fusion proteins was assessed (see Example 2 for the experimental method), and the results are shown in Table 3: […]

T3 sequence (Q9Y275 134-285 limits assumed): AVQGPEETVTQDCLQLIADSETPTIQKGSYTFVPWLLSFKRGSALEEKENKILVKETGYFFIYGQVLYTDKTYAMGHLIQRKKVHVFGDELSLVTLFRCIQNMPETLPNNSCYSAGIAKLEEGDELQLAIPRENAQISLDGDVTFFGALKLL

B1: Anifrolumab (antibody, human IgG1, kappa, V domains shown)
VH: EVQLVQSGAEVKKPGESLKISCKGSGYIFTNYWIAWVRQMPGKGLESMGIIYPGDSDIRYSPSFQGQVTISADKSITTAYLQWSSLKASDTAMYYCARHDIEGFDYWGRGTLVTVSS
VL: EIVLTQSPGTLSLSPGERATLSCRASQSVSSSFFAWYQQKPGQAPRLLIYGASSRATGIPDRLSGSGSGTDFTLTITRLEPEDFAVYYCQQYDSSAITFGQGTRLEIKR
As to B1, the “IC50, inhibition of IFN-alpha-induced in vitro differentiation of B cells into plasma cells (CD27+ CD38+)” value in assay [1] was 12.7 nM. Besides, the “IC50 (nM), inhibition of the activity of type I interferons (IFN-beta, HEK-Blue IFN-alpha/beta reporter cells)” value in assay [2] was 1.53 nM.

B2: B613303 (other)
heavy: EVQLVQSGAEVKKPGESLKISCKGSGYIFTNYWIAWVRQMPGKGLESMGIIYPGDSDIRYSPSFQGQVTISADKSITTAYLQWSSLKASDTAMYYCARHDIEGFDYWGRGTLVTVSSASTKGPSVFPLAPSSKSTSGGTAALGCLVKDYFPEPVTVSWNSGALTSGVHTFPAVLQSSGLYSLSSVVTVPSSSLGTQTYICNVNHKPSNTKVDKRVEPKSCDKTHTCPPCPAPEFEGGPSVFLFPPKPKDTLMISRTPEVTCVVVDVSHEDPEVKFNWYVDGVEVHNAKTKPREEQYNSTYRVVSVLTVLHQDWLNGKEYKCKVSNKALPASIEKTISKAKGQPREPQVYTLPPSRDELTKNQVSLTCLVKGFYPSDIAVEWESNGQPENNYKTTPPVLDSDGSFFLYSKLTVDKSRWQQGNVFSCSVMHEALHNHYTQKSLSLSPGK
light: EIVLTQSPGTLSLSPGERATLSCRASQSVSSSFFAWYQQKPGQAPRLLIYGASSRATGIPDRLSGSGSGTDFTLTITRLEPEDFAVYYCQQYDSSAITFGQGTRLEIKRTVAAPSVFIFPPSDEQLKSGTASVVCLLNNFYPREAKVQWKVDNALQSGNSQESVTEQDSKDSTYSLSSTLTLSKADYEKHKVYACEVTHQGLSSPVTKSFNRGECGGGGSGGGGSSRVDQEERFPQGLWTGVAMRSCPEEQYWDPLLGTCMSCKTICNHQSQRTCAAFCRSLSCRKEQGKFYDHLLRDCISCASICGQHPKQCAYFCENKLRSPVNLPPELMLQMAGQCSQNEYFDSLLHACIPCQLRCSSNTPPLTCQRYCNASVTNSVKGTNA
notes: Fusion protein of anifrolumab and TACI-BCMA
For B2, in assay [3], the midpoint of the response, the EC50, lay at 0.151 nM and the Emax is 2.33.

B3: TACI-9-1-Fc (Fc fusion)
chain: STSCRKEQGKFYDHLLRDCISCASICGQHPKQCAYFCENKLDKTHTCPPCPAPEAEGAPSVFLFPPKPKDTLMISRTPEVTCVVVDVSHEDPEVKFNWYVDGVEVHNAKTKPREEQYNSTYRVVSVLTVLHQDWLNGKEYKCKVSNKALPSSIEKTISKAKGQPREPQVYTLPPSRDELTKNQVSLTCLVKGFYPSDIAVEWESNGQPENNYKTTPPVLDSDGSFFLYSKLTVDKSRWQQGNVFSCSVMHEALHNHYTQKSLSLSPGK
For the molecule B3, in assay [4], the EC50 – broadly, the concentration that produces a half-maximal response – turned out to be 0.382 nM.

B4: TACI-9-7-Fc (Fc fusion)
chain: B3 chain with T2R, D18A
For B4, in assay [4], the midpoint of the response, the EC50, lay at 0.727 nM.

B5: TACI-9-14-Fc (Fc fusion)
chain: B3 chain with Y35A, F36Y
Turning to B5, a half-maximal response in assay [4] (EC50) required 0.223 nM.

B6: TACI-9-12-Fc (Fc fusion)
chain: B3 chain with Y35A
As to B6, the EC50 in assay [4] came out at 0.122 nM.

B7: TACI-9-3-Fc (Fc fusion)
chain: B3 chain with T2L, K6E
In assay [4], B7 came in with an EC50 of 0.265 nM.

B8: TACI-9-10-Fc (Fc fusion)
chain: B3 chain with T2L, K6E, K10E
In assay [4], B8 showed an EC50 of 0.12 nM.

B9: TACI-9-6-Fc (Fc fusion)
chain: B3 chain with T2R, D18T
In assay [4], B9 gave an EC50 of 0.367 nM.

B10: TACI-9-4-Fc (Fc fusion)
chain: B3 chain with T2L, K6Q
B10 registered an EC50 in assay [4] of 0.469 nM.

B11: TACI-9-11-Fc (Fc fusion)
chain: B3 chain with T2L, R5S, K6E, K10E
Molecule B11 yielded a concentration for a half-maximal effect (EC50) in assay [4] of 0.195 nM.

B12: TACI-9-2-Fc (Fc fusion)
chain: B3 chain with T2L, R5S
As to B12, the EC50 in assay [4] worked out at 0.279 nM.

B13: TACI-9-5-Fc (Fc fusion)
chain: B3 chain with T2L, K10E
As for B13, in assay [4], the EC50 is 0.146 nM.

B14: TACI-9-9-Fc (Fc fusion)
chain: B3 chain with T2R, D18T, Y35R
Turning to B14, the EC50 in assay [4] was 0.937 nM.

B15: TACI-9-13-Fc (Fc fusion)
chain: B3 chain with F36Y
The molecule B15 showed an EC50 in assay [4] of 0.433 nM.

B16: TACI-9-8-Fc (Fc fusion)
chain: B3 chain with T2L, Y35A
B16 had an EC50 in assay [4] of 0.2 nM.

B17: TACI-9-15-Fc (Fc fusion)
chain: B3 chain with K6E, K10E, Y35A
As to B17, the EC50 in assay [4] turned out to be 0.0869 nM.
